From US20170101472A1 (Regeneron, published 2017)
Where a chain is given by its changes, count along the chain named. Names and notes keep the numbering of the source.

T1: monkey LAG3 (mfLAG3) expressed on HEK293 cells (cynomolgus monkey, UniProt P18627 24-525 (human entry))
T1 construct: also called HEK293/mfLAG3; HEK293-mfLAG3
T1 chain: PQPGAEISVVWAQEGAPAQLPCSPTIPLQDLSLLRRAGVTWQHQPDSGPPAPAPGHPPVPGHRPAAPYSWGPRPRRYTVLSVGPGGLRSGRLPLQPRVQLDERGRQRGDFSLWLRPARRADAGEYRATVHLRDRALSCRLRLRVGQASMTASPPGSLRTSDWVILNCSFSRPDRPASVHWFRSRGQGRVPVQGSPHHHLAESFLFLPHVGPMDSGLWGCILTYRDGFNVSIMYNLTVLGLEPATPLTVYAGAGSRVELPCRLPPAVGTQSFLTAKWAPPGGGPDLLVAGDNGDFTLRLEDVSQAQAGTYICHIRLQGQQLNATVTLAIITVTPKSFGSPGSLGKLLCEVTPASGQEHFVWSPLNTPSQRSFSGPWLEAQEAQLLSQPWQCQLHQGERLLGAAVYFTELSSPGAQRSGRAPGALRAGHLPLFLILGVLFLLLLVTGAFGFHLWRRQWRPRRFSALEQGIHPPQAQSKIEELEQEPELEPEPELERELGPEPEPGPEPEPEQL

T2: human LAG3 expressed on HEK293 cells (human, UniProt P18627 23-525)
T2 construct: also called hLAG3; HEK293/hLAG3
T2 sequence: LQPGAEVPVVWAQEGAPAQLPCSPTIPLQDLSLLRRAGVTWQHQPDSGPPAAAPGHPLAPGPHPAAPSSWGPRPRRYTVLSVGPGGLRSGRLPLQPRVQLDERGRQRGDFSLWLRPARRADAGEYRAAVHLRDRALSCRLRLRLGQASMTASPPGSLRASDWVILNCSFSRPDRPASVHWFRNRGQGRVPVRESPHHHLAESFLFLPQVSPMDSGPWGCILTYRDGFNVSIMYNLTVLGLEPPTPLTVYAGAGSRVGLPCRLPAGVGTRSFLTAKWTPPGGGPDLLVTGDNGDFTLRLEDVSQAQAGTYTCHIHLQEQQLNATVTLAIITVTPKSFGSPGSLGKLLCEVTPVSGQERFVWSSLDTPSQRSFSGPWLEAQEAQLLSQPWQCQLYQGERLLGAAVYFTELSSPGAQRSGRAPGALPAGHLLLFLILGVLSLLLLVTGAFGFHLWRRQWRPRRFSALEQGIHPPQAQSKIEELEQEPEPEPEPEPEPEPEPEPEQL

B1: H4H15479P (antibody, human IgG4, V domains shown)
VH: QVQLQQWGAGLLNPSETLSLTCAVYGGAFSDYYWNWIRQPPGKGLEWIGEINHRGSTNYNPSLKSRVTISVDTSKNQFSLRMSSVTAADAAVYYCARGEDYDIWNGYYQEKWGQGTLVTVSS
VL: EIVLTQSPATLSLSPGERATLSCRASQSISTYLAWYQQKPGQAPRLLIYDASKRATGIPARFSGSGSGTDFTLTISSLEPEDFVVYYCHQRSNWPLTFGGGTKVEIK
B2: H4H15483P (antibody, human IgG4, V domains shown)
VH: QVQLQQWGAGLLPPSETLSLICAVYGGSFSGYYWSWIRQPPGKGLEWIGEINHRGSTNYNPSLKSRATISVDTSKNQFSLKLSSVTAADTAVYYCSRGEDYYDSSGYSYYFDYWGQGTLVTVSS
VL: B1 VL with I29V, T31S, K53N, V84A, H89Q
notes: H4H = human IgG4 Fc with S108P hinge mutation
B3: H4H17826P2 (antibody, human IgG4, V domains shown)
VH: EVQLVESGGGLVQPGGSLRLSCAASGFTFSSYEMNWVRQAPGKGLEWVSYISSSGNTKDYAGSVKGRVTISRDNAKNLLYLQMNSLRAEDTAVYHCARDGGHYDILTGSMSYYYYALDVWGQGTTVTVSS
VL: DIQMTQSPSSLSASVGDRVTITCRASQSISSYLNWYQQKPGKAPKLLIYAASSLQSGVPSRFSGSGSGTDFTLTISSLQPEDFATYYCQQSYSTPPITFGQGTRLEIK
notes: as for B2
B4: H4sH15462P (antibody, V domains shown)
VH: QVQLVQSGAEVKKPGASVKVSCKASGYTFTNYYIHWVRQAPGQGLDWMGIINPGGGNTNYAQKFLGRVTMTRDTSTTTVYMELSSLRSEDTAIYYCARENWNSYFDNWGQGTLVTVSS
VL: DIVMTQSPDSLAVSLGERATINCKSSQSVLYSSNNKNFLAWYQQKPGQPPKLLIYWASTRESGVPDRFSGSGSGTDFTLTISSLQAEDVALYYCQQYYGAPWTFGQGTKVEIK
notes: H4sH = human IgG4 Fc with 2 or more amino acid changes as disclosed in US20140243504
B5: H4H15462P (antibody, human IgG4, V domains shown)
VH: B4 VH
VL: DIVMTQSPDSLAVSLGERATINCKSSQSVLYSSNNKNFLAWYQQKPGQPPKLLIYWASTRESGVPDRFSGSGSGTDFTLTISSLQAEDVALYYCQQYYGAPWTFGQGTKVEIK
notes: as for B2
B6: H4H17819P (antibody, human IgG4, V domains shown)
VH: EVQLVESGGGLVQPGGSLRLSCVASGFTFSLYAMTWVRQVPGKGLEWVSTISGSGGGTYYTDSVKGRFTISRDNSKNTLYLQMNSLRADDTAVFYCTKESTTGTYSYFYGMDVWGQGTTVTVSS
VL: DIQMTQSPSSLSASVGDRVTITCRASQTISSYLNWYQQKPGKAPKLLIYAASSLQSGVPSRFSGSGSGTDFTLTLSGLQPEDFATYYCQQSYSTPLTFGGGTKVEIK
notes: as for B2
B7: H4sH15498P2 (antibody, V domains shown)
VH: EVQLVESGGGLVQPGGSLRLSCAASGFTFTSYAMTWVRQAPGKGLEWVSDISGSGGRTYYADSVKGRFTISRDNSKNMLYLQMNILRAEDTAVYHCAKGTGQQVDLYNYYYALDVWGQGTTVTVSS
VL: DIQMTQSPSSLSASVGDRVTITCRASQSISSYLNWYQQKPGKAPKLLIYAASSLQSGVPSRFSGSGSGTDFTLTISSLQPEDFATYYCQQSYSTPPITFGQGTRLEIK
notes: as for B4
B8: H4H15498P2 (antibody, human IgG4, V domains shown)
VH: B7 VH
VL: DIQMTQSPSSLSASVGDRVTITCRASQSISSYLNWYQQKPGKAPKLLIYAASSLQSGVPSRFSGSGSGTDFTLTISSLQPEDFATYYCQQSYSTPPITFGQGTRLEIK
notes: as for B2
B9: H4H17828P2 (antibody, human IgG4, V domains shown)
VH: EVQLVESGGGLVQPGGSLRLSCAASGFTFKTYAMSWVRQAPGRGLEWVSGISGSGSTSYYADSVKGRFTISRDNYKKTLSLQMNSLRAEDTAVYYCALDIMATVGGLFNNWGQGTLVTVSS
VL: not shown
notes: as for B2
B10: H4sH14813N (antibody, human IgG4 S228P, kappa, V domains shown)
VH: QVQLQQWGAGLLKPSETLSLTCAVYGGSFSGYYWNWIRQPPGKGLEWVGEISHRGSTNYNPSLKSRVTISLDTSKNQFSLKLTSVTAADTAVYYCSRDEELEFRFFDYWGQGTLVTVSS
VL: EIVLTQSPATLSLSPGERATLSCRASQSVSSYLAWYQQKPGQAPRLLVYGASNRATGIPARFSGSGSGTDFTLTISSLEPEDFAFYYCQQRSNWPLTFGGGTKVEIKR
notes: H4sH = modified human IgG4 Fc
B11: H4H17823P (antibody, human IgG4, V domains shown)
VH: EVQLLESGGGLVQPGGSLRLSCAASGFTFRSYAMSWVRQAPGKGLEWVSVISGGGGRTYYTDSVKGRFTISRDNSKSMLYLQMNSLRAEDTAIYYCAKERVTGIDHYYYGVDVWGQGTTVTVSS
VL: B6 VL with T28S, A51T, G66A, T74A, L75I, G77S, S93T
notes: as for B2
B12: H4H15482P (antibody, human IgG4 S228P, kappa)
heavy: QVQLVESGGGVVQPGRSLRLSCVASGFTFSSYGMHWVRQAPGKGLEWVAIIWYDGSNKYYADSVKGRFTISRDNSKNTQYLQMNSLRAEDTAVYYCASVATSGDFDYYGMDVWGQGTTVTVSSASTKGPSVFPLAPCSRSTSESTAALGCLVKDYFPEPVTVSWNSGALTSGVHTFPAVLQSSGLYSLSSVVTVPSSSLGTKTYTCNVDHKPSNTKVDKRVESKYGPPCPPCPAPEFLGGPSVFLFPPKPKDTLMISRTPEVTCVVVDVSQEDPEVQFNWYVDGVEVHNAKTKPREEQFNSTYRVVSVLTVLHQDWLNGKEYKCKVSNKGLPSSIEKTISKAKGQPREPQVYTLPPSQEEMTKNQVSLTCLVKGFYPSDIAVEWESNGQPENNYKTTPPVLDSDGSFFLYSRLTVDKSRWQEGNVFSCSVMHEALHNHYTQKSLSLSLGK
light: EIVLTQSPATLSLSPGERTTLSCRASQRISTYLAWYQQKPGQAPRLLIYDASKRATGIPARFSGSGSGTGFTLTISSLEPEDFAVYYCQQRSNWPLTFGGGTKVEIKRTVAAPSVFIFPPSDEQLKSGTASVVCLLNNFYPREAKVQWKVDNALQSGNSQESVTEQDSKDSTYSLSSTLTLSKADYEKHKVYACEVTHQGLSSPVTKSFNRGEC
notes: H4H = human IgG4 Fc with S108P
B13: H4sH15482P (antibody, human IgG4 S228P, kappa)
heavy: QVQLVESGGGVVQPGRSLRLSCVASGFTFSSYGMHWVRQAPGKGLEWVAIIWYDGSNKYYADSVKGRFTISRDNSKNTQYLQMNSLRAEDTAVYYCASVATSGDFDYYGMDVWGQGTTVTVSSASTKGPSVFPLAPCSRSTSESTAALGCLVKDYFPEPVTVSWNSGALTSGVHTFPAVLQSSGLYSLSSVVTVPSSSLGTKTYTCNVDHKPSNTKVDKRVESKYGPPCPPCPAPPVAGPSVFLFPPKPKDTLMISRTPEVTCVVVDVSQEDPEVQFNWYVDGVEVHNAKTKPREEQFNSTYRVVSVLTVLHQDWLNGKEYKCKVSNKGLPSSIEKTISKAKGQPREPQVYTLPPSQEEMTKNQVSLTCLVKGFYPSDIAVEWESNGQPENNYKTTPPVLDSDGSFFLYSRLTVDKSRWQEGNVFSCSVMHEALHNHYTQKSLSLSLGK
light: B12 light
notes: H4sH = modified human IgG4 Fc; also called mAb1

Target: T1, monkey LAG3 (mfLAG3) expressed on …
Assay: flow cytometry, HEK293/mfLAG3 cells
Protocol: (§1) The serially diluted antibodies were added to the cell suspension and incubated for 15-30 minutes on ice. The cells were centrifuged and pellets were washed with staining buffer to remove unbound antibodies. […] The cells were centrifuged and pellets were washed with staining buffer to remove unbound secondary F(ab′)2 and fixed overnight with a 1:1 dilution of Cytofix (BD Biosciences, #554655) and staining buffer. Following day, fixed cells were centrifuged and pellets were washed with staining buffer, resuspended and filtered. Fluorescence measurements were acquired on HyperCyt® cytometer and analyzed in ForeCyt™ (IntelliCyt; Albuquerque, N. Mex.) to determine the mean fluorescence intensities (MFI). The EC₅₀ values were calculated from a four-parameter logistic equation over an 11-point response curve using GraphPad Prism. EC₅₀ was defined as the concentration of antibody at which 50% of maximal binding signal is detected. The MFI ratio for each antibody was calculated by dividing the MFI at 100 nM by MFI at 0 nM of antibody concentration.

| EC50 | Ratio of MFI (100 nM/0 nM) | binding result | Binder |
| --- | --- | --- | --- |
| 1.35 nM | 21.5 | – | B1 |
| > 10 nM | 8.8 | – | B2 |
| > 10 nM | 14.3 | – | B3 |
| – | 1 | no binding (tested: 100 nM) | B4 |
| – | 2.9 | no binding (tested: 100 nM) | B5 |
| > 10 nM | 12.1 | – | B6 |
| > 10 nM | 12.1 | – | B7 |
| > 10 nM | 12.8 | – | B8 |

Target: T1, monkey LAG3 (mfLAG3) expressed on …
Assay: electrochemiluminescence cell binding
Protocol: (§2) To investigate the ability of a panel of anti-LAG3 monoclonal antibodies to bind cell-surface expressed LAG3, an in vitro binding assay utilizing human and monkey LAG3 expressing cell lines in an electrochemiluminescence based detection platform [Meso Scale Diagnostics, Rockville, Md.—(MSD)] was developed.
(§3) Experiments were carried out according to following procedure. Cells from the three cell lines described above were rinsed once in 1×PBS buffer without Ca²⁺/Mg²⁺ followed by 10-minute incubation at 37° C. with Enzyme Free Cell Dissociation Solution. […] Approximately 10,000 cells per well in the cell-washing buffer were seeded into the 96-well carbon electrode plates (MULTI-ARRAY high bind plate, MSD) and incubated for 1 hour at 37° C. to allow the cells to adhere. Nonspecific binding sites were blocked by 2% BSA (w/v) in PBS for 1 hour at room temperature. […] The plates were then washed to remove the unbound antibodies using an AquaMax2000 plate washer (MDS Analytical Technologies). The plate-bound antibodies were detected with a SULFO-TAG™-conjugated anti-human IgG antibody (MSD) for 1 hour at room temperature. After washes, the plates were developed with the Read Buffer (MSD) according to manufacturer's recommended procedure and the luminescent signals were recorded with a SECTOR Imager 6000 (MSD) instrument. The direct binding signals (in relative light units—RLU) were analyzed as a function of the antibody concentration and the data were fitted with a sigmoidal (four-parameter logistic) dose-response model using Graph Pad Prism™ software. The potency of each antibody was determined by calculating EC₅₀.

| Ratio of 100 nM antibody binding HEK293-mfLAG3 to HEK293 cells | Binder |
| --- | --- |
| 2.1 | B1 |
| 4.7 | B3 |
| 8.3 | B6 |
| 6 | B9 |
| 32.7 | B7 |
| 13.8 | B8 |

The binders below were run against T2, human LAG3 expressed on HEK293 cells (assay: electrochemiluminescence cell binding, HEK293-hLAG3).
Protocol: as §2, §3

| EC50 | Binder |
| --- | --- |
| 20.3 nM | B10 |
| 52 nM | B1 |
| 17.2 nM | B2 |
| 3.48 nM | B3 |
| 0.853 nM | B4 |
| 6.85 nM | B5 |
| 0.69 nM | B6 |
| 1.5 nM | B11 |
| 1.2 nM | B9 |
| 2.87 nM | B7 |
| 2.95 nM | B8 |
| 24.7 nM | B12 |

Target: T1, monkey LAG3 (mfLAG3) expressed on …
Assay: electrochemiluminescence cell binding, HEK293-mfLAG3
Protocol: as §2, §3

| EC50 | Binder |
| --- | --- |
| 73.9 nM | B1 |
| 7.85 nM | B3 |
| 40.2 nM | B6 |
| 13.1 nM | B9 |
| 20 nM | B7 |
| 9.68 nM | B8 |

Target: T1, monkey LAG3 (mfLAG3) expressed on …
Assay: flow cytometry, HEK293/mfLAG3 cells; FACS on HEK293/mfLAG3 cells
Protocol: as §1

| EC50 | Binder |
| --- | --- |
| 1.57 nM | B10 |
| 1.15 nM | B13 |
| 2.2 nM | B12 |

Target: T1, monkey LAG3 (mfLAG3) expressed on …
Assay: flow cytometry, HEK293/mfLAG3 cells; FACS on HEK293/mfLAG3 cells; MFI ratio 100 nM/0 nM
Protocol: as §1

| Ratio of MFI (100 nM/0 nM) | Binder |
| --- | --- |
| 16.7 | B10 |
